Data taken from the RNAGym collection of RNA variant scans (doi:10.1073/pnas.2313332121).

B1: TPR t1 (parent)
chain: GACCAAUCUGCCCUCAGAGCUCGAGAACAUCUUCGGAUGCAGAGGAGGCAGGCUUCGGUGGCGCGAUAGCGCCAACGUCCUCAACCUCCAAUGCAUCCCACCACAUGAUGAUGCCUGAAGAGCCUUGGUUUUUUG

Variants of: B1
Assay: polymerase ribozyme fitness, log enrichment relative to wild type (log ratio); higher = more active; in vitro selection for triplet polymerase activity
Outline: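 Both subunits of a heterodimeric triplet polymerase ribozyme were given their own mutant library, built by PCR and transcribed. Each library was annealed with a biotinylated primer, the partner subunit and triplets, incubated frozen at −7 °C, and its extended constructs gel-excised, captured on streptavidin beads and amplified by RT-PCR, all in one round done in triplicate. Fitness is the logarithm of genotype enrichment relative to wild-type enrichment, with replicates averaged by inverse-variance weighting. That logarithm is base 2, and Illumina-sequenced genotypes needed ≥10 input reads and ≥1 read per output.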

Row | Variant | polymerase ribozyme fitness (log ratio)
1 | GACCAAUGUGCCCUCAGAGCUCGAGAACAUCUUCGGAUGCAGAGGAGGCAGGCUUCGGUGGCGCGAUAGUGCCAACGUCAUCAACCUCCAAUGGAUCCCACCACAUGAUGAUGCCUGAAGAGCCUUGGUUUUUUG [C8G C70U C80A C94G] | -5.61
2 | GACCAAUGUGCCCUCAGAGCUCGAGAACAUCUUCGGAUGCAGAGGAGGCAGGCUUCGGUGGCGCGAUAGCGCCAACGUCCUCAACCUCCAAUGCAUCGCACCACAUGAUGAUGCCUGAAGAGCCUUGGUUUCUUG [C8G C98G U132C] | -4.39
3 | GACCAAUGUGCCCUCAGAGCUCGAGAACAUCUUCGGAUGCAGAGGAGGCAGGCUUCGGUGGCGCGAUAGCGCCAACGUCCUCAACCUCCAAUGCAUCCCACCACAUGAUGAUGCAUGAAGAGCCUUGGUGUUUUG [C8G C115A U130G] | 1.67
4 | GACCAAUGUGCCCUCAGAGCUCGAGAACAUCUUCGGAUGCAGAGGAGGCAGGCUUCGGUGGCGCGAUAGCGCCAACGUCCUCAACCUCCAAUGCAUUCCACUACAUGAUGAUGCCUGAAGAGCCUUGGUUUUUUG [C8G C97U C102U] | -1.4
5 | GACCAAUGUGCCCUUAGAGCUCGAGAACAUCUUCGGAUGCAGAGGAGGCAGGCGUCGGUGGCGCGAUAGCGCCAACGUCCUCAACCUCCAAUGCAUCCCACCACAUGAUGAUGCCUCAAGAGCCUUGGUUUUUUG [C8G C15U U54G G117C] | 0.947
6 | GACCAAUGUGCCCUCAGAGUUCGAGAACAUCUUCGGAUGCAGAGGAGGCAGUCUUCGGUGGAGCGAUAGCGCCAACGUCCUCAACCUCCAAUGCAUCCCACCACAUGAUGAUGCCUGAAGAGCCUUGGUUUUUUG [C8G C20U G52U C62A] | -2.37
7 | GACCAAUGUGCCCUCAGAGCUCGAGAACAUCUUCGGAUGCAGAGGAGGCAGGCUUCGGUGGCGCGAUAGCGCAAACGUCCUCAACCUCCAAUGCAUCCCACCACAUGAUGAUGCCUGAAGAGCCUUGGUUUUUUG [C8G C73A] | 1.91
8 | GACCAAUGUGCCCUCAGAGCUCGAGAACAUCUUCGGAUGCAGAGGAGGCAGGCUUCGGUGGCGCGAUAGCGCGAACGUCCUCAACCUCCAAUGCAUCCCACCACAUGAUGAUGCCUGAAGAGCCUUGGUUUUUUG [C8G C73G] | 0.0346
9 | GACCAAUGUGCCCUCAGAGCUCGAGAACAUCUUCGGAUGCAGAGGAGGGUGGCUUCGGUGGCGCGAUAGCGCCAACGUUCUCAACCUCCAAUGCAUCCCACCACAUGAUGAUGCCUGAAGAGCCUUGGUUCUUUG [C8G C49G A50U C79U U131C] | -2.75
10 | GACCAAUGUGCCCUCAGAGAUCGAGAACAUCUUCGGAUGCAGAGGAGGCAGGCUUCGGUGGCGCGAUAGCGUCAACAUCCUCAACCUCCAAUGCAUCCCACCACAUGAUGAUGCCUGAAGAGCCUUGGUUUUUUG [C8G C20A C72U G77A] | -1.87
11 | GACCAAUGUGCCCUCAGAGCUCGAGAACAUCUUCGGAUGCAGAGGAGGCAGGCUUAGGUGGCGCGAUAGCGCCAACUUCCUCAACCUGCAAAGCAUCCCACCACAUGAUGAUCCCUGAAGAAGCUUGGUUUUUUG [C8G C56A G77U C88G U92A G113C G122A C123G] | -3.34
12 | GACCAAUGUGCCCUCAGAGCUCGAGAACAUCUUCGGAUGCAGAGGAGGCAGGCUUCGGUGGUGCGAUAGCGCCAACGUCCUCAACCUCCAAUGCAUCCUACCACAUGAUGAUGCCUGAAGAGCCUUGGUUUUUUG [C8G C62U C99U] | -2.93
13 | GACCAAUGUGCCCUCAGAGCUUGAGAACAUCUUCGGAUGCAGAGGAGGCAGGAUUCGGUGGCGCGAUAGCGCCAACGUCCUCAACCUCCAAUGCAUCCCAACACAUGAUGAUGCCUGAAGGGCAUUGGUUUUUUG [C8G C22U C53A C101A A121G C124A] | -3.25
14 | GACCAAUGUGCCCUCAGAGCUCGAGAACAUCUUCGGAUGCAGAGGAGGCAGGCUUAGGUGGCGCGAUAGCGCCAACGCCCUCAACCUCCAAUACAUCCCACCACAUGAUGAUGCCUGAAGAGUCUUGGUUUUUUG [C8G C56A U78C G93A C123U] | 1.31
15 | GACCAAUGUGCCCUCAGAGCUCGAGAACAUCUUCGGAUGCAGAGGAGGCAGGCUUCGGUGGCGCGAUAGCGCCAACGUCCUCAACCUACAAUGCAUCCCACCACAUGAUGAUGCCUGAAGAGCCUUGGUUUUUUG [C8G C88A] | -0.193
16 | GACCAAUGUGCCCUCAGAGCUCGAGAACAUCUUCGGAUGCAGAGGAGGCAGGCUUCGGUGGCGCGAUAGCGCCAACGUCCUAAACCUCCAAUGCAUCCCACCACAUGAUGAUGCCUUAAGAGCCUUGGUUUUUUG [C8G C82A G117U] | 0.587
17 | GACCAAUGUGCCCUCAGAGCUCGAGAACAUCUUCGGAUGCAGAGGAGGCAGGCUUAGGUGGCGCGAUAGCGCCAACGUCCUCAACCUCCAAUGCAUCCCACCACAUGAUGAUGCCUGAAGAGCCUUGGUUUUUUG [C8G C56A] | 0.399
18 | GACCAAUGUGCCCUCAGAGCUCGAGAAGAUCUUCGGAUGCAGAGGAGGCAGGCUUCGGUGGCGCGAUAGCGCCAACGUCCUCAACCUCCAAUGCAUACCACCACAAGAUGAUGCUUGAAGAGCCUUGGUUUUGUG [C8G C28G C97A U106A C115U U133G] | -5.09
19 | GACCAAUGUGCCCUCAGAGCUCGAGAACAUCUUCGGAUGCAGAGGAGGCAGGCUUCGGUGGCGCGAUAGCGCCAACGUCAUCAACCUCCUAUGCAUCCCACCACAUGAUGAUGCCUGAAGAGCCUUGCGUUUUUG [C8G C80A A90U G128C U129G] | -4.56
20 | GACCAAUGUGCCCUCAGAGCUCGAGAACAUCUUCGGAUGCAGAGGAGGCAGGCUUCGGUGGUGCGAUAGCGCCAACGUCCUCAACGUCCAAUGCAUCCCACCACAUGAUGAUGCCUAAUGAGCCUUGGUUUUUUG [C8G C62U C86G G117A A119U] | -0.52
21 | GACCAAUGUGCCCUCAGAGCUCGAGAACAUCUUCGGAUGCAGAGGAGGCAGGCUUCGGUGGCGCGAUAGCGCCAACGUCCUCAACCUCCAAUGCAUCCCACUACACGAUGAUGCCUGAAGAGCCUUGGUUUUUUG [C8G C102U U106C] | -0.803

Row | Variant | polymerase ribozyme fitness (log ratio)
22 | GACCAAUGUGCCCUCAGAGCUCGAGAACAUCUUCGGAUGCAGAGGAGGCAGGCUUCGGUGGCGCGAUAGCGCCAACGUGCUCAACCUCCAAUGCAUCCCACCACAUGAUGAUGCCUUAAGAGCCUUGGUUUUUUG [C8G C79G G117U] | -1.37
23 | GACCAAUGUGCCCUCAGAGCUCGAGAACAUCUUCGGAUGCAGAGGAGGCAGGCUUCGGUGGCGUGAUAGCGCCAACGUCCUCAACCUCCAAUGCAUCCCACCACAUGAUGAUGCCUGAAGAGCCUUGGUUUUUUG [C8G C64U] | 0.927
24 | GACCAAUGUGCCCUCAGAGCUCGAGAAAAUCUUCGGAUGCAGAGGAGGCAGGCUUCGGUGGCGCGAUAGCGCCAACGUCCUCAACCUCCAAUGCAUCCCACCACAUGAUGAUGCCUGAAGAGCCUUGGUUUUUUG [C8G C28A] | -3.24
25 | GACCAAUGUGCCCUCAGAGCUCGAGAAGAUCUUCGGAUGCAGAGGAGGCAGGCUUCGGUGGCGCGAUAGCGCCAACGUCCUCAACCUCCAAUGCAUCCCACCACAUGAUGAUGCCUGAAGAGCCUUGGUUUUUUG [C8G C28G] | -2.05
26 | GACCAAUGUGCCCUCAGAGCUCGAGAACAUCUUCGGAUGCAGAGGAGGCAGGCUUCGGUGGCGCGAUAGCGCCAACGUACUCAACCUCCAAUGCAUCCCACCACAUGAUGAUGCCUGAAGAGCCUUGGUUUUUUG [C8G C79A] | -0.929
27 | GACCAAUGUGCCCUCAGAGUUCGAGAACAUCUUCGGAUGCAGAGGAGGUAGGCUUCGGUGGCGCGAUAGCGCCAACGUCCUCAACCUCCAAUGCAUCCCACCACAUGAUGAUGCCUGAAGAGCCUUGGUUUUUUG [C8G C20U C49U] | -1.11
28 | GACCAAUGUGCCCUCAGAGCUCGAGAACAUCUUCGGAUGCAGAGGAGGCAGGCUUCGGUGGCGCGAUAGCGCCAACGUCCUCAACCUCAAAUGCAUCCCACCACCUGAUGAUGCCUGAAGAGCCUUGGUUUUUUG [C8G C89A A105C] | -4.02
29 | GACCAAUGUGCCCUCAGAGCUCGAGAACAUCUUCGGAUGCAGAGGAGGAAGGCUUCGGUGGCGCGAUAGCGCCAACGUCCUCAACCUCCAAAGCAUCCCACCACAUGAUGAUGCCUGAAGAGUCUUGGUUUUUUG [C8G C49A U92A C123U] | -1.03
30 | GACCAAUGUGCCCUCAGAGGUCGAGAACAUCUUCGGAUGCAGAUGAGGCAGGCUUCGGUGGCGCGAUAGCGCCAACGUCCUCAACCUCCAAUGCAUCCCACCACAUGAUGAUGCCUGAAGAGCCUUGGUUUUUUG [C8G C20G G44U] | -4.75
31 | GACCAAUGUGCCCUCAGAGCUCGAGAACAUCUUAGGAUGCAGAGGAGGCAGGCUACGGUGGCGCGAUAGGGCCAACGUCCUCAACCUCCAAUGCAUCCCACCAGAUGAUAAUGCCUGAAGAGCCUUGGUUUUUUG [C8G C34A U55A C70G C104G G110A] | -7.2
32 | GACCAAUGUGCCCUCAGAGUUCGAGAACAUCUUCGGAUGCAGAGGAGGCAGGCUUCGGUGGCGCGAUAUCGCCAACGUCCUCAACCUCCAAUGCAUCCCAUCACAUGAUGAUGCCUGAAGAGCCUUGGUUUUUUG [C8G C20U G69U C101U] | -1.07
33 | GACCAAUGUGCCCUCAGAGCUCGAGAACAUCUUCGGAUGCAGAGGAGGCAGGCUUCGGUGGCGCGAUAGCGCCAACGUCCUCAACCUCCAAUGCAUGCCACCACAUGAUGAUGCCUGAAGAGCCUUGGUUUUUUG [C8G C97G] | -3.25
34 | GACCAAUGUGCCCUCAGAGCUCGAGAACAUCUUCGGAUGCAGAGGAGGCAGGCUUCGGUGGCGCGAUAGCGCCAACGUCCUCAACCUCCAAUGCAUCCCAGCACAUGAUGAUGCCUGAAGAGCCUUGUUUUUUUG [C8G C101G G128U] | -3.26
35 | GACCAAUGUGCCCUCAGAGUUCGAGAACAUCGUCGGAUGCAGAGGAGGCAGGCUUGGGUGGCGCGAUAGCGCCAACGUCCUCAACCUCCAAUGCAUCCCACCACAUGAUGAUACCUGAAGAGCCGUGGUUUUUUG [C8G C20U U32G C56G G113A U125G] | -3.85
36 | GACCAAUGUGCCCUCAGAGCUCGAGAACAUCUUCGGAUGCAGAGGAGGCAGGCUUCGGUGGCGCGAUAGCGACAACGUCCUCAACCUCCAAUGCAUCCCACCACAUGAUGAUGCCUGAAGAGCCUUGGUUUUUUG [C8G C72A] | 0.366
37 | GACCAAUGUGCCCUCAGAGGUCGAGAACAUCUUUGGAUGCAGAGGAGGCAGGCUUCGGUGGCGCGAUAGCGCCAACGUCCUCAACCUCCAAUGCAUCCCACCACAUGAUGAAGCCUGAAGAGCCUUGGUUUUUUG [C8G C20G C34U U112A] | -5.8
38 | GACCAAUGUGCCCUCAGAGCUCGAGAAAAUCUUCGGAUGCAGAGGAGGCAGGCUUCGGUGGCGCGAUAGCGACAACGUCCUCAACCUCCAAUGCAUCCCACCACAUGAUGAUGCCUGAAGAGCCUUGGUUUUUUG [C8G C28A C72A] | -4.41
39 | GACCAAUGUGCCCUCAGAGAUCGAGAACAUCUUCGGAUGCAGAGGAGGCAGGCUUCGGUGGCGCGAUAGCGCCAACGUCCUCACCCUCCAAUGCAUCCCACCACAUGAUGAUGCCUGAAGAGCUUUGGUUUUUUG [C8G C20A A84C C124U] | -0.801
40 | GACCAAUGUGCCCUCAGAGCUCGAGAACAUCUUCGGAUGCAGAGGAGGCAGGCUUCGGUGGCGCGAUAGCGCCAACGUCCUCAACCUCUAAUGCAUCCCACCACAUGAUGAUGCCUGAAGAGCCUUGGUUUUUUG [C8G C89U] | -0.514
41 | GACCAAUGUGCCCUCAGAGCUCGAGAACAUCUUCGGAUGCAGAGGAGGCAGGUUUCGGUGGCGCGAUAGCGCCAACGUCCUCAACCUCCAAUGCAUCCCACCACAUGAUGAUGCCUGAAGAGCCUUGGUUUUUUG [C8G C53U] | 0.216
42 | GACCAAUGUGCCCUCAGAGCUCGAGAACAUCUUCGGAUGCAGAGGAGGGAGGCUUCGGUGGCGCGAUAGCGCCAACGUCCUCAACCUCGAAUGCAUCCCACCACAUGAUGAUGCCUGAAGAGCCUUGGUUUUUUG [C8G C49G C89G] | -1.42
